The text below walks through data of article PMC9646764.

pKd: −log10 of the molar value. Like-named read-outs stand apart in the source and are kept apart here.

Test in all cases: BLI
On the technique in general: Biolayer interferometry detects binding as a change in optical thickness at a sensor tip.

Test [1] addresses TFPI-Fc (human IgG-Fc-tagged TFPI without the GPI anchor) (UniProt P10646). As to conditions: for response: parent: est. 0.0, read off a plot.
Test [2] has as its target Chicken TFPI-Fc (chicken). Conditions: domain or fragment.
Test [3] addresses mTFPI-Fc (Fc-tagged mouse TFPI) (mouse) (UniProt O54819).
For test [4], the target named is mTFPI-Fc (Fc-tagged mouse TFPI) (UniProt O54819). Conditions: 2000 nM fragment, read at end of association (~145 s), parent: est. 0.03, read off a plot.
mTFPI-Fc (Fc-tagged mouse TFPI), sequence (O54819 29-217): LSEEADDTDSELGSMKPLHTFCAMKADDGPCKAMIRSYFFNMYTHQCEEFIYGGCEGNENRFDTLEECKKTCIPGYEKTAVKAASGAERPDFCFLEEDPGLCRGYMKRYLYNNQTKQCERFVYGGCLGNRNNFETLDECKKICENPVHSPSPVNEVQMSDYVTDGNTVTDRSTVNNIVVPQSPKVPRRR

TFPI-Fc (human IgG-Fc-tagged TFPI without the GPI anchor), sequence (P10646 29-209): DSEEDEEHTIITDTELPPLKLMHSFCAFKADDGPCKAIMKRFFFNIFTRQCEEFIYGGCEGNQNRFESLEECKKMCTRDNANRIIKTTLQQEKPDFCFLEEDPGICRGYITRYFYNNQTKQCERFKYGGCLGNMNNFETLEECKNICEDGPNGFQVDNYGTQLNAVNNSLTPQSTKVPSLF
mTFPI-Fc (Fc-tagged mouse TFPI) (mouse), sequence (O54819 29-217): as the sequence (O54819 29-217) above

As a reminder, the pKd is −log10 of the Kd, conventionally taken in molar units. Low values mean a high Kd, high ones a low Kd. The koff is a measure of how fast the partners let go of each other. Low values mean a long-lived complex, high ones a short-lived complex. TcdB2.11_(1286-1805): the negative logarithm of the Kd (pKd) in test [1] (domain or fragment) was 6.88; in test [2], 6.69; in test [3] (domain or fragment) it was 7.04. In addition, the dissociation rate constant (koff) in test [1] (domain or fragment) was found to be 0.0109 s⁻¹; in test [2], 0.0165 s⁻¹; in test [3] (domain or fragment) it was 0.00623 s⁻¹.

Take “TcdB2.1_(1285-1804) L1505P; C1509Y; E1547K; N1596K; Q1599K”: in test [1], the response turned out to be 0.1 nm.

In the case of “TcdB4.2_(1286-1805) (domain or fragment)”, the negative logarithm of the Kd (pKd) in test [1] was 7.30; in test [3] it was 7.62.

“TcdB11.2_(1285-1804) F1506S; D1511Y; F1597S; V1598L”: the response in test [4] is 0.67 nm.

TcdB11.2_(1285-1804) F1506S; D1511Y: the response in test [4] is 0.74 nm.

With TcdB2.1_(1285-1804) S1495I, the response in test [1] was found to be 0.38 nm.

Turning to “TcdB2.1_(1285-1804) S1495I; L1505P; C1509Y; E1547K”, the response in test [1] was 0.62 nm.

In the case of TcdB11.2_(1285-1804) F1597S; V1598L, the response in test [4] stood at 0.13 nm.

On to “TcdB2.1_(1285-1804) S1495I; L1505P; C1509Y; N1596K; Q1599K”, for which the response in test [1] amounted to 0.66 nm.
